Measurements reported in US20220175781A1, “CD40L COMPOSITIONS AND METHODS FOR TUNABLE REGULATION” (Obsidian Therapeutics, Inc., priority 2019, published 2022).
Substitutions are numbered along the chain they refer to.

Assays:
Jurkat cells [1] = assay: CD40L shedding ELISA of supernatant, Jurkat cells with or without CD40-Fc receptor; type: cell-based; set-up: CD40L levels in supernatant: unit not given here; details: 6 hours
Description: Sheddases e.g. ADAM10/17 present in the tumor microenvironment can cleave CD40L thereby preventing the successful activation of CD40 by CD40L. […] OT-001669 which has a deletion of amino acids 1-13 of CD40L was designed to reduce internalization and OT-001668 which has a deletion of amino acids 110-116 of CD40L was designed to remove the ADAM10/17 sites. Jurkat cells stably expressing the full length construct OT-001661, OT-001669, or OT-001668 were cultured for 6 hours with 1.25 μg/ml recombinant human (h) or mouse (m) CD40-Fc receptor or left untreated and tested using an ELISA assay (Table 15).

T cells (CD4 and CD8) = assay: Cleavage resistant CD40L expression and TMP regulation in T cells; type: cell-based; details: for CD40L expression (percentage of CD40L expressing T cells): day 4
Description: T cells were transduced with OT-001668 and on day 4, the percentage of CD40L expressing T cells (within the both CD4 and CD8) subpopulations was calculated.
T cells were transduced with ecDHFR regulated construct OT-001671 that include a CD40L protein that was resistant to cleavage. On day 4 cells were treated with 10 μM TMP for 24 hours. […] In an independent experiment, T cells transduced with varying volumes of virus corresponding to OT-001671 were treated with increasing doses of TMP for 24 hours. In Table 41, 0.5 μL, 2 μL, and 10 μL indicate the different volumes of virus that were used.

HEK293T cells [2] = assay: Surface expression of CD40L trimerization mutants, transfected HEK293T cells (FACS); type: cell-based, human; details: transiently transfected HEK293T cells
Description: Mutations were engineered within CD40L payload to reduce the binding affinity of CD40L payload for the CD40L endogenously expressed by cells. Constructs OT-002078, OT-002079, OT-002080, OT-002081, OT-002082 were generated with the CD40L trimerization mutants. HEK293T cells were transiently transfected with the constructs and CD40L expression was measured by FACS.

HEK 293T cells = assay: hDHFR regulated CD40L surface expression, HEK 293T cells (flow cytometry); type: cell-based, human; details: 50 μM TMP 24 hours
Description: HEK 293T cells were transiently […] with hDHFR regulated constructs namely OT-001962, OT-001961, OT-001963 for 24 hours. Following transfection, cells were treated with 50 μM TMP for 24 hours and CD40L cell surface expression was measured using flow cytometry. […] CD40L expression in the absence of ligand was virtually undetectable.

Jurkat cells [3] = assay: DHFR regulated CD40L expression, transduced Jurkat cells (flow cytometry); type: cell-based; details: for SR: TMP (50 μM) versus Vehicle
Description: Jurkat cells were transduced with lentiviruses corresponding to OT-001662, OT-001962, OT-001961, OT-001963. 24 hours after transduction, cells were split and treated with DMSO or 50 μM TMP for another 24 hours until flow cytometry-based analysis. The results are shown in Table 37 where SR indicates stabilization ration.

HEK293T cells [4] = assay: Soluble CD40L ELISA, transiently transfected HEK293T cells; type: cell-based, human
Description: Soluble CD40L (sCD40L) constructs OT-001672, OT-001686, OT-001673, OT-001674, OT-001677, and OT-001684 were transiently transfected into HEK293T cells. Cells were treated with one of the following ligands 1 μM Shield-1, 50 μM TMP, 1 μM Bazedoxifene (BZD) or vehicle control.
The pg/mL levels of soluble CD40L were measured by ELISA (Table 14). Recombinant soluble CD40L was used as the standard in the experiments.

[5] = independent experiment with similar setup

B1: OT-001668: cleavage resistant CD40L construct, deletion of amino acids 110-116 of CD40L to remove the ADAM10/17 sites (protein)
chain: MHMIETYNQTSPRSAATGLPISMKIFMYLLTVFLITQMIGSALFAVYLHRRLDKIEDERNLHEDFVFMKTIQRCNTGERSLSLLNCEEIKSQFEGFVKDIMLNKEETKKENDQNPQIAAHVISEASSKTTSVLQWAEKGYYTMSNNLVTLENGKQLTVKRQGLYYIYAQVTFCSNREASSQAPFIASLCLKSPGRFERILLRAANTHSSAKPCGQQSIHLGGVFELQPGASVFVNVTDPSQVSHGTGFTSFGLLKL
Jurkat cells [1]; 1.25 μg/ml hCD40-Fc
  CD40L levels in supernatant: 10
Jurkat cells [1]; 1.25 μg/ml mCD40-Fc
  CD40L levels in supernatant: 10
Jurkat cells [1]; untreated or with human or mouse CD40-Fc
  shedding of CD40L: no shedding
Jurkat cells [1]; Untreated
  CD40L levels in supernatant: 10
T cells (CD4 and CD8); CD4+
  CD40L expression (percentage of CD40L expressing T cells): 95.5%
T cells (CD4 and CD8); CD8+
  CD40L expression (percentage of CD40L expressing T cells): 86.7%
T cells (CD4 and CD8); T cells, day 4, CD4 and CD8 subpopulations
  expression of CD40L: High expression of CD40L

B2: OT-002078: construct with CD40L trimerization mutant (protein)
chain: MGGSGGGSGGGSGMIETYNQTSPRSAATGLPISMKIFMYLLTVFLITQMIGSALFAVYLHRRLDKIEDERNLHEDFVFMKTIQRCNTGERSLSLLNCEEIKSQFEGFVKDIMLNKEETKKENSFEMQKGDQNPQIAAHVISEASSKTTSVLQWAEKGYYTMSNNLVTLENGKQLTVKRQGLYYIYAQVTFCSNREASSQAPFIASLCLKSPGRFERILLRAANTHSSAKPCGQQSIGLFGVFELQPGASVFVNVTDPSQVSHGTGFTSFGLLKL
HEK293T cells [2]
  % CD40L positive: 49.7%

B3: OT-002082: construct with CD40L trimerization mutant (protein)
chain: B2 chain with H138G, G237H, F239G, G240F
HEK293T cells [2]
  % CD40L positive: 0.028%

B4: OT-002079: construct with CD40L trimerization mutant (protein)
chain: B2 chain with F239H
HEK293T cells [2]
  % CD40L positive: 64.7%

B5: OT-002080: construct with CD40L trimerization mutant (protein)
chain: B2 chain with Y185G, G237H
HEK293T cells [2]
  % CD40L positive: 0.11%

B6: OT-001961: hDHFR regulated CD40L construct (protein)
chain: MVGSLNCIVAVSQNMGIGKNGDLPWPPLRNEFRYFQRMTTTSSVEGKQNLVIMGKKTWFSIPEKNRPLKGRINLVLSRELKEPPQGAHFLSRSLDDALKLTEQPELANKVDMVWIVGGSSVIKEAMNHPGHLKLFVTRIMQDFESDTFFPEIDLEKYKLLPEYPGVLSDVQEEKGIKYKFEVYEKNDHMIETYNQTSPRSAATGLPISMKIFMYLLTVFLITQMIGSALFAVYLHRRLDKIEDERNLHEDFVFMKTIQRCNTGERSLSLLNCEEIKSQFEGFVKDIMLNKEETKKENSFEMQKGDQNPQIAAHVISEASSKTTSVLQWAEKGYYTMSNNLVTLENGKQLTVKRQGLYYIYAQVTFCSNREASSQAPFIASLCLKSPGRFERILLRAANTHSSAKPCGQQSIHLGGVFELQPGASVFVNVTDPSQVSHGTGFTSFGLLKL
HEK 293T cells
  % CD40L: 14.6%
Jurkat cells [3]; TMP (50 μM)
  % CD40L expression: 3.5%
Jurkat cells [3]
  SR: 1.8
Jurkat cells [3]; Vehicle (DMSO)
  % CD40L expression: 2%

B7: OT-001963: hDHFR regulated CD40L construct (protein)
chain: B6 chain with K55R, N65K
HEK 293T cells
  % CD40L: 13.3%
Jurkat cells [3]; TMP (50 μM)
  % CD40L expression: 20%
Jurkat cells [3]
  SR: 10
Jurkat cells [3]; Vehicle (DMSO)
  % CD40L expression: 2%

B8: OT-001677: Soluble CD40L (sCD40L) construct (protein)
chain: GSSLALSLTADQMVSALLDAEPPILYSEYDPTRPFSEASMMGLLTNLADRELVHMINWAKRVPGFVDLTLHDQVHLLECAWMEILMIGLVWRSMEHPGKLLFAPNLLLDRDQGKCVEGGVEIFDMLLATSSRFRMMNLQGEEFVCLKSIILLNSGVYTFLSSTLKSLEEKDHIHRVLDKITDTLIHLMAKAGLTLQQQHQRLAQLLLILSHIRHMSNKRMEHLYSMKCKNVVPLSDLLLEMLDAHRLGSMHMQKGDQNPQIAAHVISEASSKTTSVLQWAEKGYYTMSNNLVTLENGKQLTVKRQGLYYIYAQVTFCSNREASSQAPFIASLCLKSPGRFERILLRAANTHSSAKPCGQQSIHLGGVFELQPGASVFVNVTDPSQVSHGTGFTSFGLLKL
HEK293T cells [4]; [5]
  Stabilization Ratio: 7.2
  basal expression in the absence of ligand: very low basal expression

B9: OT-001684: Soluble CD40L (sCD40L) construct (protein)
chain: B8 chain with T69A, D111N, N217S
HEK293T cells [4]; soluble CD40L +Ligand versus Vehicle, HEK293T cells
  Stabilization Ratio: 1.0
